Blank lines part the entries; values can stand above or below the substance they belong to.
Experiments:
[1] = target: IST1 MIM1 peptide (residues 344–366), fluorescently labeled (human); experiment: fluorescence polarisation; 250 pM Oregon Green 488-labeled IST1 peptides, twofold dilutions of ULK3 proteins; 25 mM Tris pH 7.2, 150 mM NaCl, 0.1 mg/mL BSA, 0.01% Tween-20, 1 mM DTT; 1:1 fit
[2] = target: CHMP1A (positive-control partner of the Gal4-CHMP1B constructs in the two-hybrid assay); experiment: yeast two-hybrid (β-galactosidase activity); conditions: parent: est. 0.71; read off a plot
[3] = target: IST1 MIMs peptide (residues 316–366), fluorescently labeled (human); experiment: fluorescence polarisation; 250 pM Oregon Green 488-labeled IST1 peptides, twofold dilutions of ULK3 proteins; 25 mM Tris pH 7.2, 150 mM NaCl, 0.1 mg/mL BSA, 0.01% Tween-20, 1 mM DTT; 1:1 fit

Substance: ULK3 MIT2 (residues 359–449) (from UniProt Q6PHR2 359-449) (domain or fragment)
Kd [1]: 0.77 µM

Substance: CHMP1B WT fused to the Gal4 DNA-binding domain (from UniProt Q7LBR1) T178R; A181R; E184R
response [2]: 0.89

Substance: ULK3(MIT)2 V338D (from UniProt Q6PHR2 277-449) (domain or fragment)
fold reduction of binding against wild-type ULK3(MIT)2 [3]: < 2 fold

Now from value to substance:

Kd [3]: 0.2 µM
Substance: ULK3(MIT)2 (residues 277–449) (from UniProt Q6PHR2 277-449) (domain or fragment)

fold reduction of binding against wild-type ULK3(MIT)2 [3]: > 100 fold
Substance: ULK3(MIT)2 M434D (from UniProt Q6PHR2 277-449) (domain or fragment)

From article PMC4475061
